Positions count from the first letter of the chain named. Numbers in names are those of the source. Read-outs that look alike come from different tables or passages of the source.

One data set concerns the target T1, CobB (Escherichia coli, UniProt P75960).
T1 sequence (P75960 1-279): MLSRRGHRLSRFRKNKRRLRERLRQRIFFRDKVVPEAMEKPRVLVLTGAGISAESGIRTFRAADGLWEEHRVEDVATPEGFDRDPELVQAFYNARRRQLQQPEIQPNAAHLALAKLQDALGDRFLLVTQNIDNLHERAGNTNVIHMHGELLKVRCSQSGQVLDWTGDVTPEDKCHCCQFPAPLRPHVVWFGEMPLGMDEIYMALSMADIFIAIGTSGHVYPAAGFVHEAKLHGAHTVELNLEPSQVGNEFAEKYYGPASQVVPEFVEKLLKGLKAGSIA
The conditions noted are these: 10 mM NAM, 37 °C, 2 h; result in words.

The target of data set [1] is YiaC. Nature of the data set: ITC affinity of recombinant YiaC with acyl-CoA. In kind it is binding, E. coli. The note with it: for Kd: cell 50 μM YiaC titrated with 500 μM acyl-CoA, 37 °C (method), three biological repetitions; for binding (Bin): result in words. The method, then:
(§1) This method was described previously. […] The volume of the first injection was 0.5 μl of 500 μM actyl-CoA (or actylated peptides), and the following 18 injections were 2.0 μl. The binding isotherm was fit with the Origin 8.0 software (OriginLab). Each group had three biological repetitions.

In data set [2] the target is T2, YiaC (Escherichia coli, UniProt P37664).
T2 construct: recombinant, pET28a vector, expressed in E. coli BL21 (λDE3), purified on HisPur Ni-NTA resin
T2 sequence (P37664 whole entry): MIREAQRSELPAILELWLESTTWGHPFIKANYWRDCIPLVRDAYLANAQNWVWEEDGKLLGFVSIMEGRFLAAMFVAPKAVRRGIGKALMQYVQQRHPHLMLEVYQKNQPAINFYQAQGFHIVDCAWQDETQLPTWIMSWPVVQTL
Nature of the data set: Isothermal titration calorimetry (MicroCal PEAQ-ITC) with acyl-CoA (750 uM in syringe) titrated into YiaC (75 uM in cell) at 25.1 °C according to the data sheet; the methods text gives 500 uM, 50 uM and 37 °C. In kind it is binding. The conditions noted are these: n = 3. As to the method: as §1

For the next data set, the system named is whole-cell lysates. Nature of the data set: Whole-cell lysate reaction, lactate to La-CoA. Also on record: species or system E. coli MG1655. The conditions noted are these: result in words. As to the method: This method was described previously. In detail, E. coli MG1655 was cultured in LB medium at 37 °C in shaken flasks overnight and harvested the cells by centrifugation, then added lysate buffer [[…], […] and 5 mM MgCl2, PH 7.0] and broke cells by ultrasound on ice, the supernatant was extracted by high-speed centrifugation as the whole protein lysate. Then measured protein concentration by BCA and adjusted the protein concentration to 2 mg/ml. […] Each reaction was performed three biological repetitions.
Samples dissolved in water were analyzed by an Orbitrap Exploris 480 (Thermo Scientific) mass spectrometer in positive ESI mode using the settings described previously[65],[66]. […] An Orbitrap Exploris 480 (Thermo Fisher Scientific) was employed for MS analysis. Spray voltage was set to 3.5 kV, funnel RF level at 40, and ion transfer tube temperature at 320 °C. Data were collected by Xcalibur (v.4.0.27.19). The orbitrap mass analyzer was used as the MS1 detector with 120,000 resolution. The normalized AGC target and maximum injection time were set at 70% /standard for MS1. The MS2 detector was used 15,000 resolution. Targeted mass setting is lactyl-CoA: 840.1436, acetyl-CoA: 810.1330 and propionate CoA: 824.1487. […] The relative intensity of acyl-CoA was analyzed by Xcalibur (v.4.0.27.19).

For a further data set, the system named is E. coli MG1655. Nature of the data set: Growth curve. Type of data set: cell-based. The note with it: 37 °C, result in words. As to the method:
As previous described, the strains were cultured in LB medium overnight, then diluted 1:1000 in LB or M9 medium (with 1% glucose or 1% pyruvate) and incubated at 37 °C with 96-well plates, and each strain was added to three wells. The absorbance at 600 nm at initiation was set as a blank and measured every hour using a spectrophotometer. All the growth dynamic curves were drawn using Origin 8.0.

In data set [3] the test system is PykF. The conditions noted are these: for Relative activity of PykF: intracellular; for intracellular PykF activity: result in words.
The test system of data set [4] is PykF. The note with it: in vitro; result in words.
In the next data set the test system is PncB. Nature of the data set: In vitro assay for PncB activity. In kind it is biochemical, E. coli. The note with it: for enzymatic activity vs wild type: in vitro, result in words. As to the method:
The activity of purified PncB, PncB^K381Q, and PncB^K381R were measured as described. In detail, the purified proteins were added in the reaction buffer [50 mM Tris-HCl, 10 mM MgCl2, 2.5 mM dithiothreitol, 1 mM ATP, […] of bovine serum albumin, 1 mM nicotinic acid and 1 mM 5-phosphoribosyl-1-pyrophosphate (pH 7.5)] at 37 °C for 2 h. The reactions were measured by HPLC-MS/MS to detect the production of […]. Separation was performed on a Vanquish UHPLC system (Thermo Fisher Scientific) with an ACQUITY UPLC BEH C18 column (100 × 2.1 mm, 1.7 μm). Mobile phase A was 0.1% formic acid in water. Mobile phase B was 0.1% formic acid in methanol. […] Injection volume was 2 μl. Nicotinic acid detection was performed on an Orbitrap Exploris 480 spectrometer (Thermo Fisher Scientific, Bremen, Germany) operated with ESI probe. Data were acquired under the following parameters: sheath gas ((N2), 35 Arb; aux gas (N2), 10 Arb; spray voltage, 3500 V (positive mode); and in transfer tube temperature, 320 °C. An SIM was applied for data acquisition.

Where [5] appears, read: Fig. 6e, LB medium 37 °C, replicate 1.
Where [6] appears, read: Fig. 6e, LB medium 37 °C, replicate 2.
Where [7] appears, read: Fig. 6e, LB medium 37 °C, replicate 3.
Setting [8] is: Fig. 6g, M9 with 1% glucose, replicate 2.
Where [9] appears, read: Fig. 6g, M9 with 1% glucose, replicate 3.
Where [10] appears, read: replicate 1, 37 °C, 2 h, HPLC-MS/MS.

For the molecule `NC(=O)c1cccnc1` [NAM, nicotinamide, reference compound], on CobB, the “inhibition of CobB delactylation” value is “the delactylation reaction could be inhibited by nicotinamide (NAM)” and the “inhibition, deacetylation compared with delactylation” value is given as “more effective for deacetylation than delactylation”.
`CC(=O)SCCNC(=O)CCNC(=O)[C@H](O)C(C)(C)COP(=O)(O)OP(=O)(O)OC[C@H]1O[C@@H](n2cnc3c(N)ncnc32)[C@H](O)[C@@H]1OP(=O)(O)O` [acetyl-CoA, Acetyl coenzyme A, reference compound]: on YiaC [1], the Kd was 5.57 µM and the “binding (Bin)” value was “Binding”.
In turn, `CC(=O)SCCNC(=O)CCNC(=O)[C@H](O)C(C)(C)COP(=O)(O)OP(=O)(O)OC[C@H]1O[C@@H](n2cnc3c(N)ncnc32)[C@H](O)[C@@H]1OP(=O)(O)O` [acetyl-CoA, acetyl coenzyme A] came in with a Kd on YiaC [2] of 5.57 µM.
Take `CC(O)C(=O)O` (centres unmarked) [lactate, reference compound]: in the data set on whole-cell lysates, the “conversion to lactyl-CoA / lactyl-CoA level” value is “could be effectively converted to lactyl-CoA”.
For the molecule `CC(O)C(=O)SCCNC(=O)CCNC(=O)[C@H](O)C(C)(C)COP(=O)(O)OP(=O)(O)OC[C@H]1O[C@@H](n2cnc3c(N)ncnc32)[C@H](O)[C@@H]1OP(=O)(O)O` (some centres unmarked) [lactyl-CoA, lactyl-coenzyme A], the Kd at YiaC [1] and on YiaC [2] was 6.83 µM throughout. Also, the “binding (Bin)” value in the data set with YiaC [1] was “strong binding”; in the data set on YiaC [1] (listed as laCoA), “Binding”. For the same molecule, the “conversion to lactyl-CoA / lactyl-CoA level” value in the data set with whole-cell lysates is on record as “low level”.
Turning to PykF^K382Q, the growth result was “grew the slowest” with E. coli MG1655 (LB medium) and “grew slowest” with E. coli MG1655 (M9 with 1% glucose). In addition, the “Relative activity of PykF” value worked out at 0.52 in the data set on PykF [3] (setting [5]); 0.47 in the data set on PykF [3] (setting [6]); 0.58 with PykF [3] (setting [7]); 0.4941 with PykF [3] (setting [8]); 0.4204 in the data set on PykF [3] (setting [9]). The “intracellular PykF activity” value is “lowest activity” in the data set on PykF [3] (LB medium) and “lowest PykF activity” in the data set on PykF [3] (M9 with 1% glucose). The “enzymatic activity vs wild type” value with PykF [4] is reported as “significantly decreased”.
Consider “PykF^K382R: PykF mutant, unmodified K mimic; pPykF^K382R = overexpressing strain”, for which the growth entry with E. coli MG1655 (LB medium) is “fastest growth”; with E. coli MG1655 (M9 with 1% glucose), “grew fastest”. Further, the “Relative activity of PykF” value with PykF [3] (setting [5]) stood at 1.38; in the data set with PykF [3] (setting [6]) it was 1.06; in the data set with PykF [3] (setting [7]) it was 1.54; in the data set on PykF [3] (Fig. 6g, M9 with 1% glucose, replicate 1), 1.27; in the data set with PykF [3] (setting [8]), 1.36; with PykF [3] (setting [9]), 1.3593. In addition, the “intracellular PykF activity” value with PykF [3] (LB medium) is listed as “highest activity”; in the data set on PykF [3] (M9 with 1% glucose), “highest PykF activity”. The “enzymatic activity vs wild type” value with PykF [4] is given as “increased”.
With “Succinyl coenzyme A [succinyl-CoA, reference compound]”, the “binding (Bin)” value in the data set on YiaC [1] is “no binding”.

B1: PncB^K381Q (protein, UniProt P18133 2-400, looked up, variant K381Q)
Nicotinate …: TQFASPVLHSLLDTDAYKLHMQQAVFHHYYDVHVAAEFRCRGDDLLGIYADAIREQVQAMQHLRLQDDEYQWLSALPFFKADYLNWLREFRFNPEQVTVSNDNGKLDIRLSGPWREVILWEVPLLAVISEMVHRYRSPQADVAQALDTLESKLVDFSALTAGLDMSRFHLMDFGTRRRFSREVQETIVKRLQQESWFVGTSNYDLARRLSLTPMGTQAHEWFQAHQQISPDLANSQRAALAAWLEEYPDQLGIALTDCITMDAFLRDFGVEFASRYQGLRHDSGDPVEWGEKAIAHYEKLGIDPQSKTLVFSDNLDLRKAVELYRHFSSRVQLSFGIGTRLTCDIPQVKPLNIVIKLVECNGKPVAKLSDSPGKTICHDQAFVRALRKAFDLPHIKKAS
For the molecule B1, the “enzymatic activity vs wild type” value with PncB is reported as “significantly decreased”. Moreover, the “Residual percentage of reaction” value in the data set with PncB (replicate 1, relative to C) is listed as 0.3998; in the data set with PncB (replicate 2, relative to C) it was 0.4956; with PncB (replicate 3, relative to C), 0.3796. Moreover, the “Determination of nicotinic acid” value with PncB (setting [10]) is listed as 117663852; in the data set on PncB (replicate 2), 149776081; in the data set with PncB (replicate 3) it was 106239984.

B2: PncB: nicotinate phosphoribosyltransferase, wild type (protein, UniProt P18133 2-400, looked up)
Nicotinate …: B1 Nicotinate … with Q380K
Take B2: the “Residual percentage of reaction” value in the data set with PncB (replicate 1, relative to C) is on record as 0.08118; with PncB (replicate 2, relative to C), 0.08433; with PncB (replicate 3, relative to C), 0.06624. The “Determination of nicotinic acid” value in the data set on PncB (setting [10]) worked out at 23891965; in the data set on PncB (replicate 2), 25485329; with PncB (replicate 3), 18539215.

B3: PncB^K381R (protein, UniProt P18133 2-400, looked up, variant K381R)
Nicotinate …: B1 Nicotinate … with Q380R
For B3, in the data set with PncB, the “enzymatic activity vs wild type” value is on record as “increased”. Further, the “Residual percentage of reaction” value turned out to be 0.01962 in the data set with PncB (replicate 1, relative to C); 0.01995 in the data set on PncB (replicate 2, relative to C); 0.0207 in the data set on PncB (replicate 3, relative to C). In addition, the “Determination of nicotinic acid” value is 5775041 in the data set on PncB (setting [10]), 6028387 in the data set on PncB (replicate 2) and 5793798 in the data set with PncB (replicate 3).
